Reference: patent US20050202430A1 (Novartis, published 2005)

Molecular target: T1, alpha9 integrin on transfected SW480 colon carcinoma cells (UniProt Q13797 30-1035; P05556 21-798)
T1 construct: whole, on cells; also called α9 integrin; alpha9 beta1 integrin
Assay: adhesion of transfected SW480 cells to wells coated with tenascin-W
From the text: IDG tripeptide motifs have been reported to be the recognition sequence for alpha9 beta1 integrin (Yokosaki et al., 1998). Since mouse tenascin-W contains three IDG motifs we investigated whether α9 integrin could be the receptor for tenascin-W. We plated SW480 colon carcinoma cells transfected either with an empty vector or with the vector containing the cDNA for α9 integrin (Yokosaki et al. J Biol. Chem. 1996 Sep. 27;271(39):24144-50) on tenascin-W coated wells.

T1 sequence (Q13797 30-1035, chain 1 of 2): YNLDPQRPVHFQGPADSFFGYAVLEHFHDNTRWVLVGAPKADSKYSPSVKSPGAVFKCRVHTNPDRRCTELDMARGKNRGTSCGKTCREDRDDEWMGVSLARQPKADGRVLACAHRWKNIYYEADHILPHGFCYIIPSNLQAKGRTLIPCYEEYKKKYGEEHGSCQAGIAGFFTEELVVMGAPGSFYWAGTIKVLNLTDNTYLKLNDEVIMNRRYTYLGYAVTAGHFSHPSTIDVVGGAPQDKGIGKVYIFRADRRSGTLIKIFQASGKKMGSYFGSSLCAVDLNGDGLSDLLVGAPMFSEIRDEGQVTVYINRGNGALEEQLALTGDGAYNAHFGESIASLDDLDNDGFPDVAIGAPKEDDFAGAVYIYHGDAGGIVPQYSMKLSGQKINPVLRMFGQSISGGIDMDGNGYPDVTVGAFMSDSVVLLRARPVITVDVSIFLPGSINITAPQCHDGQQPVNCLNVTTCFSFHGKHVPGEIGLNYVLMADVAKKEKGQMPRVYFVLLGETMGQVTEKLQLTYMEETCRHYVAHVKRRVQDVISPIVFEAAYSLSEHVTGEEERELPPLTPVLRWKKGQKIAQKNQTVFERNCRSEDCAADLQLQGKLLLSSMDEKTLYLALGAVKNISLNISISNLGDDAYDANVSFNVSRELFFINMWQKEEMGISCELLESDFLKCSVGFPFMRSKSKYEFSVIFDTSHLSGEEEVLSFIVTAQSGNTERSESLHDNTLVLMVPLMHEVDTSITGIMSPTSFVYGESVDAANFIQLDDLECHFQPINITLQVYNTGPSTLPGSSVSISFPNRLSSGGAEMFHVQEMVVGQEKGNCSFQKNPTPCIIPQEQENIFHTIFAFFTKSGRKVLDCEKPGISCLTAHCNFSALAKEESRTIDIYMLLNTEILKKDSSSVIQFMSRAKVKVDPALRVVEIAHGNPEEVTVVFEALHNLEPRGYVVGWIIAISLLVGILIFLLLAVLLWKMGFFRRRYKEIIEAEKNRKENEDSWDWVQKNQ
T1 sequence (P05556 21-798, chain 2 of 2): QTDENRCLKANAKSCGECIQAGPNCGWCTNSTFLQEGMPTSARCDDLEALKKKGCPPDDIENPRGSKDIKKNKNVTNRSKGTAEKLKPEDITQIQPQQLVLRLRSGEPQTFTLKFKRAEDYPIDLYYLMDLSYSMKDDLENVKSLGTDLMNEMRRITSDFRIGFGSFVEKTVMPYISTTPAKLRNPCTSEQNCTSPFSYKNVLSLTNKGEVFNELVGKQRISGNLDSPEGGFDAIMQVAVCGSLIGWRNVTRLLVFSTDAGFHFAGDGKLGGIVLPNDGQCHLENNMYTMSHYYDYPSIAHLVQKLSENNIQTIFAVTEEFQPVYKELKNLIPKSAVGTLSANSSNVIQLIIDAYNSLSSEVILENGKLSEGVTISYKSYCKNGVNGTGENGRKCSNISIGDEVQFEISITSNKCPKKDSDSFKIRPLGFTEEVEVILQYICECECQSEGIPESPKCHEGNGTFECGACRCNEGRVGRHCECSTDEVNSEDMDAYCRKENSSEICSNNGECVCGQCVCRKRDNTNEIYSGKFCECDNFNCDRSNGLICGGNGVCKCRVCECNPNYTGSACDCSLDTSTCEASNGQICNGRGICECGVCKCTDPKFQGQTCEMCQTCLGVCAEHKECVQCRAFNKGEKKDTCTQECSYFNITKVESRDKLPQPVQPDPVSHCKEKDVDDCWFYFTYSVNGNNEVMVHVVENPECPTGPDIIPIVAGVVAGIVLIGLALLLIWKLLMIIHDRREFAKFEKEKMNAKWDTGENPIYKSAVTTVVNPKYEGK

B1: purified full-length recombinant mouse tenascin-W (C-terminal 6xHis-tag, secreted from HEK 293 cells) (ligand)
chain: TPESPGCSNKEQQVTVSHTYKIDVPKSALVQVETDPQSLSDDGTSLLAPGEDGEEQNIIFRHNIRLQTPQKNCDLADSVQDLLARMKKLEEEMAELKEQCNTNRCCQGAADLSRHCSGHGTFLPETCSCHCDQGWEGADCDQPTCPGACNGHGRCVDGQCVCDAPYVGVDCAYAACPQDCSGHGVCVQGVCQCHEDFTAEDCSEQRCPGDCSGNGFCDTGECYCEMGFTGPDCSQVVAPQGLQLLKSTENSLLVSWEPSSEVDYYLLSYYPLGKEQATKQVRVPKEQHTYDITGLLPGTKYIVTLRNVKKDISSSPQHLLATTDLAVLGTAWVNEETETSLDVEWENPLTEVDYYKLRYGPLTGQEVTEVTVPKSRDPKSRYDITGLQPGTEYKITVVPIRGDLEGKPILLNGRTEIDGPTNVVTNQVTEDTASVSWDPVRADIDKYVVRYIAPDGETKEKAVPKDQSSTVLTGLKPGEAYKVFVWAERGNQGSKKADTKALTEIDSPENLVTDRVTENSLSVSWDPVEADIDRYVVSYTSVDGETKQVPVKKDQRSTVLTGLSPGVEYKVYVWAEKGDRESKKANTKAPTDIDSPKNLVTDQVTENTLSVSWDPVQANIDRYMVSYTSADGETREVPVPKEKSSTVLTGLRPGVEYKVHVWAQKGTQESRKANTKAPTDIDGPKNLVTDQVTETTLSVSWDPVEADIDRYMVRYTSPDGETKEVPVSKDKSSTVLRGLRPGVEYKVDVWAQKGAQDSRKANTKAPTDIDSPKNLVTEQVAESTATVSWDPVEADIDRYVVRYTSADGETREIPVRKEKSSTVLTGLRPGVEYTVQVWAQKGARESKKAKTKAPTEIDSPKNLVTNRVTENTATISWDPVRANIDRYMVRYTSADGETKEIPVSKDQSNTILTGLKPGMEYTIHVWAQKGARESKKADTKALTEIDPPRNLRPFGVTHSGGVLTWLPPSAQIDGYILTYQFPNGTVKGVELPRGQQRFELQDLEQGVTYPVSLVAFKGNQRSRTVSTTLSTVDARFPHPSDCSQVQQNTNAASGLYTIYLNGDASRPMQVYCDMDTDGGGWIVFQRRNTGQLDFFKRWRSYVEGFGDPMKEFWLGLDKLHNLTTGTTTRYEVRADLQTFNESAYAVYDFFQVASSKERYKLSVGKYRGTAGDALTYHNGWKFTTFDRDSDIALSNCALTHHGGWWYKNCHLANPNGKYGETKHSEGVNWEPWKGHEFSIPYVELKIRPFGYSRDRFSGRKKRSIGKARMFHHHHHH
notes: also called full length mouse tenascin-W protein; purified tenascin-W
binding result: no binding
